What was measured:
Test in all cases: pull-down
6xHis-IKKβ(1-669) EE = target: T1, 6xHis-IKKβ(1-669) EE (human, UniProt O14920 1-669, S177E | S181E)
T1 sequence (looked up): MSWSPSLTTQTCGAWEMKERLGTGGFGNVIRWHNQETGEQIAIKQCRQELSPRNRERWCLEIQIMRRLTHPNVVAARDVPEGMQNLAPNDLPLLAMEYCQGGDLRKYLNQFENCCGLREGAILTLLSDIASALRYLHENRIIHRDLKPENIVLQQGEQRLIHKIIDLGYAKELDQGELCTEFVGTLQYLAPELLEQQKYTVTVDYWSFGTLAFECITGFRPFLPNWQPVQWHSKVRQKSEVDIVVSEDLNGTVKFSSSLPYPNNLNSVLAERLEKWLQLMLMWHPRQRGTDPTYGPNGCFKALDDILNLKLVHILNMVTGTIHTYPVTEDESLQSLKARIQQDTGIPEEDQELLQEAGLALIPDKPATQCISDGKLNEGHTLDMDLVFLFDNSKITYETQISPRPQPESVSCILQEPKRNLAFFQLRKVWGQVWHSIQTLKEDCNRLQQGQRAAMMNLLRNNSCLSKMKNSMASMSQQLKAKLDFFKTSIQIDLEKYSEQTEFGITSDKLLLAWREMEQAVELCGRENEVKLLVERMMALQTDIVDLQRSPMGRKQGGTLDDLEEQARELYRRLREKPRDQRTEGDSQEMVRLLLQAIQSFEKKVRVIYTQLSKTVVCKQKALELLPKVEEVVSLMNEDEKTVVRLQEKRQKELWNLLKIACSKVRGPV

[1] = target: T2, 6xHis-IKKβ(1-669) EE K480E (human, UniProt O14920 1-669, S177E | S181E | K480E)
T2 sequence (looked up): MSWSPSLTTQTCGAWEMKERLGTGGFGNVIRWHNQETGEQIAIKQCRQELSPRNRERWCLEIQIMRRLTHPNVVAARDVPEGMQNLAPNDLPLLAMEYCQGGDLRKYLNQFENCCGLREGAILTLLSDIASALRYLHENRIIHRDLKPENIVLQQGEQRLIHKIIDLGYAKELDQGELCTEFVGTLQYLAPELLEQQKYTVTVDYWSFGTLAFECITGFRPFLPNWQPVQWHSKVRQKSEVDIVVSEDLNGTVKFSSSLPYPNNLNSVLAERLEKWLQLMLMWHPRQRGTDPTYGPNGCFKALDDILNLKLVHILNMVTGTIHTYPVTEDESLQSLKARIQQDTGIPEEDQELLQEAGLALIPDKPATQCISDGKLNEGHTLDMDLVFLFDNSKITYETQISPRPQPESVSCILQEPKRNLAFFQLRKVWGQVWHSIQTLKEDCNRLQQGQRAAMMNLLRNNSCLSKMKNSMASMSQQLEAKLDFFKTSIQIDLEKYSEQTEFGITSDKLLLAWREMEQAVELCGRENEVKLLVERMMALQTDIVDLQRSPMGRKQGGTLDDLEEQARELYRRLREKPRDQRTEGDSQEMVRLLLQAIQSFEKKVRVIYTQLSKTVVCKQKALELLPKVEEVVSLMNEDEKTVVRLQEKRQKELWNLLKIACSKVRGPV

[2] = target: T3, 6xHis-IKKβ(1-669) EE M475A (human, UniProt O14920 1-669, S177E | S181E | M475A)
T3 sequence (looked up): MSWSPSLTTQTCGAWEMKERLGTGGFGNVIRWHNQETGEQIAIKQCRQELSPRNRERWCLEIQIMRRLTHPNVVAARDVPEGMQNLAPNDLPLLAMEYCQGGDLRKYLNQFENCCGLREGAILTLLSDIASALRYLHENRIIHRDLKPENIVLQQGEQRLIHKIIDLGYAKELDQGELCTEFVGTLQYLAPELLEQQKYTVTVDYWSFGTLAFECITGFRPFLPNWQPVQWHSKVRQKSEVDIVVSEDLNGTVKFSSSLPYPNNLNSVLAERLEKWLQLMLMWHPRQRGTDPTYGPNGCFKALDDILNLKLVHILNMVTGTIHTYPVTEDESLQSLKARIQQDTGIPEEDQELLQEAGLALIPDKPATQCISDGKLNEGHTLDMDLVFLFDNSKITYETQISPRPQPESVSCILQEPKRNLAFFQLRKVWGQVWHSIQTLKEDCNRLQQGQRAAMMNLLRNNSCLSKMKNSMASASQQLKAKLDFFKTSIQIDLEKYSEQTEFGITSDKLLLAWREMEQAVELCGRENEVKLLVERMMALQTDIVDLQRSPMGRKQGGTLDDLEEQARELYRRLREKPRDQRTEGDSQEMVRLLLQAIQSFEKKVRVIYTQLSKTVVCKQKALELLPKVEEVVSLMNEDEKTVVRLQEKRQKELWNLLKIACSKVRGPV

Measured: binding result

B1: MBP-IκBα pep(s) (peptide, UniProt P25963 301-317, looked up)
chain: DELPYDDCVFGGQRLTL
binds: 6xHis-IKKβ(1-669) EE | [1] | [2]
